Assays:
[1] = target: T1, human A-beta(1-40) peptide, monomeric (BAM) (human, biotin at the C-terminus in capture ELISA, SPR and TR-FRET; not biotinylated where coated directly (Example 7)); assay: TR-FRET competition, mean IC50
T1 construct: synthetic peptide (Anaspec), TFA/HFIP treated to give monomer; also called monomeric A-beta

[2] = target: T1, human A-beta(1-40) peptide, monomeric …; assay: TR-FRET competition; labelled competitor not given

Binder	IC50 [1] [nM]	IC50 [2] [nM]
ABII011 (VHH, humanized variant of ABII002) VHH: EVQLLESGGGLVLPGGSLRLSCVHSGPTFRTDTMGWFRQAPGKGREFVAAVTWNSGRINYADSVKGRFTVSRDNTRNALYLQMSGLKDEDTAVYYCTAHRFVVGGNRVEDWRYWGQGTLVTVSS	24	24
ABII005 (VHH, humanized variant of ABII002) VHH: EVQLLESGGGLVLPGGSLRLSCAHSGPTFRTDTMGWFRQAPGKGREFVAAVTWNSGRINYADSVKGRFTVSRDNTRNAAYLQMSGLKDEDTAVYYCTAHRFVVGGNRVEDWRYWGQGTLVTVSS	3.3	3.3
ABII006 (VHH, humanized variant of ABII002) VHH: EVQLLESGGGLVLPGGSLRLSCVASGPTFRTDTMGWFRQAPGKGREFVAAVTWNSGRINYADSVKGRFTVSRDNTRNAAYLQMSGLKDEDTAVYYCTAHRFVVGGNRVEDWRYWGQGTLVTVSS	80	80
ABII051 (VHH, humanized variant of ABII050) VHH: EVQLLESGGGLVQPGGSLRLSCAASGRTFNNYNMGWFRQAPGKGREFVAAVSRSGVSTYYADSVKGRFTISRDNAKNAVYLQMNSLRPEDTAIYYCGAAYRGTAINVRRSYDSWGQGTLVTVSS	18	18
ABII053 (VHH, humanized variant of ABII050) VHH: EVQLLESGGGLVQPGGSLRLSCAASGRTFNNYNMGWFRQAPGKGREFVAAVSRSGVSTYYADSVKGRFTISRDNAKNTVYLQMNSLRPEDTAIYYCGAAYRGTAINVRRSYDSWGQGTLVTVSS	20	20
ABII052 (VHH, humanized variant of ABII050) VHH: EVQLLESGGGLVQPGGSLRLSCAASGRTFNNYNMGWFRQAPGKGREFVAAVSRSGVSTYYADSVKGRFTISRDNSKNAVYLQMNSLRPEDTAIYYCGAAYRGTAINVRRSYDSWGQGTLVTVSS	19	19
ABII055 (VHH, humanized variant of ABII050) VHH: EVQLLESGGGLVQPGGSLRLSCAASGRTFNNYNMGWFRQAPGKGREFVAAVSRSGVSTYYADSVKGRFTISRDNAKNAVYLQMNSLRPEDTAVYYCGAAYRGTAINVRRSYDSWGQGTLVTVSS	22	22
ABII057 (VHH, humanized variant of ABII050) VHH: EVQLLESGGGLVQPGGSLRLSCAASGRTFNNYNMGWFRQAPGKGREFVAAVSRSGVSTYYADSVKGRFTISRDNSKNTVYLQMNSLRPEDTAVYYCAAAYRGTAINVRRSYDSWGQGTLVTVSS	46	46
ABII054 (VHH, humanized variant of ABII050) VHH: EVQLLESGGGLVQPGGSLRLSCAASGRTFNNYNMGWFRQAPGKGREFVAAVSRSGVSTYYADSVKGRFTISRDNAKNALYLQMNSLRPEDTAIYYCGAAYRGTAINVRRSYDSWGQGTLVTVSS	51	51
ABII060 (VHH, humanized variant of ABII050) VHH: EVQLLESGGGLVQPGGSLRLSCAASGRTFNNYNMGWFRQAPGKGREFVAAVSRSGVSTYYADSVKGRFTISRDNSKNTLYLQMNSLRPEDTAVYYCAAAYRGTAINVRRSYSSWGQGTLVTVSS	50	50
ABII058 (VHH, humanized variant of ABII050) VHH: EVQLLESGGGLVQPGGSLRLSCAASGRTFNNYNMGWFRQAPGKGREFVAAVSRSGVSTYYADSVKGRFTISRDNSKNTLYLQMNSLRPEDTAVYYCAAAYRGTAINVRRSYDSWGQGTLVTVSS	73	73
ABII056 (VHH, humanized variant of ABII050) VHH: EVQLLESGGGLVQPGGSLRLSCAASGRTFNNYNMGWFRQAPGKGREFVAAVSRSGVSTYYADSVKGRFTISRDNAKNAVYLQMNSLRPEDTAIYYCAAAYRGTAINVRRSYDSWGQGTLVTVSS	29	29

Binders with a lower IC50 [2], results first:

IC50 [1] [nM]	IC50 [2] [nM]	Binder
2.1	2.1	ABII003 (VHH, humanized variant of ABII002) VHH: EVQLLESGGGLVLPGGSLRLSCVHSGPTFRTDTMGWFRQAPGKGREFVAAVTWNSGRINYADSVKGRFTVSRDNTRNAAYLQMSGLKDEDTAVYYCTAHRFVVGGNRVEDWRYWGQGTLVTVSS
	3.1	ABII037 (VHH, humanized variant of ABII002) VHH: EVQLLESGGGLVQPGGSLRLSCVHSGPTFRTDTMGWFRQAPGKGREFVAAVTWNSGRINYADSVKGRFTISRDNSKNTAYLQMNSLRAEDTAVYYCAAHRFVVGGNRVEDWRYWGQGTLVTVSS
1.6	1.6	ABII007 (VHH, humanized variant of ABII002) VHH: EVQLLESGGGLVLPGGSLRLSCVHSGPTFRTDTMGWFRQAPGKGREFVAAVTWNSGRINYADSVKGRFTISRDNTRNAAYLQMSGLKDEDTAVYYCTAHRFVVGGNRVEDWRYWGQGTLVTVSS
1.7	1.7	ABII009 (VHH, humanized variant of ABII002) VHH: EVQLLESGGGLVLPGGSLRLSCVHSGPTFRTDTMGWFRQAPGKGREFVAAVTWNSGRINYADSVKGRFTVSRDNTKNAAYLQMSGLKDEDTAVYYCTAHRFVVGGNRVEDWRYWGQGTLVTVSS
1.5	1.5	ABII012 (VHH, humanized variant of ABII002) VHH: EVQLLESGGGLVLPGGSLRLSCVHSGPTFRTDTMGWFRQAPGKGREFVAAVTWNSGRINYADSVKGRFTVSRDNTRNAAYLQMNGLKDEDTAVYYCTAHRFVVGGNRVEDWRYWGQGTLVTVSS
1.9	1.9	ABII010 (VHH, humanized variant of ABII002) VHH: EVQLLESGGGLVLPGGSLRLSCVHSGPTFRTDTMGWFRQAPGKGREFVAAVTWNSGRINYADSVKGRFTVSRDNTRNTAYLQMSGLKDEDTAVYYCTAHRFVVGGNRVEDWRYWGQGTLVTVSS
2.1	2.1	ABII004 (VHH, humanized variant of ABII002) VHH: EVQLLESGGGLVQPGGSLRLSCVHSGPTFRTDTMGWFRQAPGKGREFVAAVTWNSGRINYADSVKGRFTVSRDNTRNAAYLQMSGLKDEDTAVYYCTAHRFVVGGNRVEDWRYWGQGTLVTVSS
1.9	1.9	ABII008 (VHH, humanized variant of ABII002) VHH: EVQLLESGGGLVLPGGSLRLSCVHSGPTFRTDTMGWFRQAPGKGREFVAAVTWNSGRINYADSVKGRFTVSRDNSRNAAYLQMSGLKDEDTAVYYCTAHRFVVGGNRVEDWRYWGQGTLVTVSS
1.6	1.6	ABII013 (VHH, humanized variant of ABII002) VHH: EVQLLESGGGLVLPGGSLRLSCVHSGPTFRTDTMGWFRQAPGKGREFVAAVTWNSGRINYADSVKGRFTVSRDNTRNAAYLQMSSLKDEDTAVYYCTAHRFVVGGNRVEDWRYWGQGTLVTVSS
	2.4	ABII061 (VHH, humanized variant of ABII050) VHH: EVQLLESGGGLVQPGGSLRLSCAASGRTFNNYNMGWFRQAPGKGREFVAAVSRSGVSTYYADSVKGRFTISRDNSKNTVYLQMNSLRPEDTAVYYCGAAYRGTAINVRRSYSSWGQGTLVTVSS
